Laboratory results: publication PMC4915132, “Structural insights of ZIP4 extracellular domain critical for optimal zinc transport” (Nature Communications, 2016)

Key:
[1] = biological target: extracellular domain of ZIP14 from Pteropus alecto (Pteropus alecto); experiment: SEC; purified protein on a size exclusion column; elution volume compared with standard proteins eluted on the same column
[2] = biological target: pZIP14-ECD C147S mutant (Pteropus alecto); experiment: as above
[3] = biological target: the molecule itself; experiment: as above
[4] = biological target: the molecule itself; experiment: cross-linking; disulfide through an engineered cysteine; full-length hZIP4-HA transiently expressed in HEK293T cells; 4-20% gradient SDS-PAGE with or without 5% β-mercaptoethanol, western blot with anti-HA

Molecule: extracellular domain of ZIP14 from Pteropus alecto (from UniProt A5D7L5 61-174) (domain or fragment)
- stoichiometry N [1]: 2

Molecule: pZIP14-ECD C147S mutant (from UniProt A5D7L5 61-174) (domain or fragment)
- stoichiometry N [2]: 2

B1: ZIP4 extracellular domain from Pteropus alecto (black fruit bat) (domain or fragment, UniProt L5KLU7 36-322, looked up)
chain: SGQGALDRVALGGLLNTLAARVHCTSGPCGKCLSVDDLLALGRPEEPGHLARLSAAAALYLSDPEGTCEDIRAGRWASRADHLLALLEGPKALAPGLSRLLQRIQAQTTGQPSAGEACVDPPQLLREAGVAGAPGSPGPVLATLLEHVGRGSCFHTLPTPQYFVDFVFQQSHGNTPNISVAELAALMQRLGVGGVTETHSDHHHQEKRVNRQGPTPLTAPNSSSDTWDTVCLSARDVMAVYGLSEQTGVTPEAWAQLSPALLQQQLSGACSPQPSHPAQNQLSQAEK
notes: Zinc transporter ZIP4 (SLC39A4) of Pteropus alecto, GenBank ELK11751, residues 36-322 (extracellular domain: HRD 36-191 and PCD 192-322); A selenomethionine-substituted form was also crystallised for phasing; Four intramolecular disulfide bonds (C59-C64, C67-C103, C153-C188, C266-C305); also called pZIP4-ECD; ZIP4-ECD; source: E. coli Origami B(DE3) pLysS, purified (Ni-NTA, Mono-Q, SEC); not …
- stoichiometry N [3]: 2

B2: full-length human ZIP4 S297C mutant with C-terminal HA tag (natural protein, UniProt Q6P5W5-1 23-647, looked up)
chain: SPPAGLLSLLTSGQGALDQEALGGLLNTLADRVHCANGPCGKCLSVEDALGLGEPEGSGLPPGPVLEARYVARLSAAAVLYLSNPEGTCEDARAGLWASHADHLLALLESPKALTPGLSWLLQRMQARAAGQTPKMACVDIPQLLEEAVGAGAPGSAGGVLAALLDHVRSGSCFHALPSPQYFVDFVFQQHSSEVPMTLAELSALMQRLGVGREAHSDHSHRHRGASSRDPVPLISSSNSSSVWDTVCLSARDVMAAYGLSEQAGVTPEAWAQLCPALLQQQLSGACTSQSRPPVQDQLSQSERYLYGSLATLLICLCAVFGLLLLTCTGCRGVTHYILQTFLSLAVGAVTGDAVLHLTPKVLGLHTHSEEGLSPQPTWRLLAMLAGLYAFFLFENLFNLLLPRDPEDLEDGPCGHSSHSHGGHSHGVSLQLAPSELRQPKPPHEGSRADLVAEESPELLNPEPRRLSPELRLLPYMITLGDAVHNFADGLAVGAAFASSWKTGLATSLAVFCHELPHELGDFAALLHAGLSVRQALLLNLASALTAFAGLYVALAVGVSEESEAWILAVATGLFLYVALCDMLPAMLKVRDPRPWLLFLLHNVGLLGGWTVLLLLSLYEDDITF
notes: Human zinc transporter ZIP4 (SLC39A4), GenBank BC062625, with S297C (S297 is equivalent to S293 in pZIP4); Intermolecular disulfide C297-C297* in the dimer; also called S297C mutant ZIP4; source: HEK293T, transiently transfected, in lysate; not shown: HA, C-terminal, kept
- stoichiometry N [4]: 2
